Assay results published in publication PMC3982999.

Target: GST-tetra-ubiquitin (4×UB) (UniProt P0CG48)
Assay: LUMIER

B1: Renilla luciferase fused to the full-length WT spartin (natural protein)
chain: MEQEPQNGEPAEIKIIREAYKKAFLFVNKGLNTDELGQKEEAKNYYKQGIGHLLRGISISSKESEHTGPGWESARQMQQKMKETLQNVRTRLEILEKGLATSLQNDLQEVPKLYPEFPPKDMCEKLPEPQSFSSAPQHAEVNGNTSTPSAGAVAAPASLSLPSQSCPAEAPPAYTPQAAEGHYTVSYGTDSGEFSSVGEEFYRNHSQPPPLETLGLDADELILIPNGVQIFFVNPAGEVSAPSYPGYLRIVRFLDNSLDTVLNRPPGFLQVCDWLYPLVPDRSPVLKCTAGAYMFPDTMLQAAGCFVGVVLSSELPEDDRELFEDLLRQMSDLRLQANWNRAEEENEFQIPGRTRPSSDQLKEASGTDVKQLDQGNKDVRHKGKRGKRAKDTSSEEVNLSHIVPCEPVPEEKPKELPEWSEKVAHNILSGASWVSWGLVKGAEITGKAIQKGASKLRERIQPEEKPVEVSPAVTKGLYIAKQATGGAAKVSQFLVDGVCTVANCVGKELAPHVKKHGSKLVPESLKKDKDGKSPLDGAMVVAASSVQGFSTVWQGLECAAKCIVNNVSAETVQTVRYKYGYNAGEATHHAVDSAVNVGVTAYNINNIGIKAMVKKTATQTGHTLLEDYQIVDNSQRENQEGAANVNVRGEKDEQTKEVKEAKKKDK
  fold weaker binding than to 2×UB: 4 fold
